The target of the experiment is TolB construct MV37 (TolB Δ1–22) (E. coli) (UniProt P0A855). Briefly: SPR.

With “TolAIII construct YZ48 (wild-type TolAIII) (domain or fragment)”, the dissociation constant (Kd) was 4.1 µM. This counts as single-digit micromolar. For the substance “TolAIII construct YZ74 (TolAIII Y352H,V407E) (domain or fragment)”, the Kd was 23.6 µM. Against the preceding substance, the Kd is about 5.8-fold higher.

These data come from publication PMC2707214.
